Measurements from patent US20060026702A1, “Phosphoinositide 3-kinase mediated inhibition of GPCRs” (DUKE UNIVERSITY, priority 2002, published 2006).

T1: βARK1 (Bos taurus, UniProt P21146)
T1 construct: gift from Dr. Robert Lefkowitz
T1 sequence (P21146 1-689): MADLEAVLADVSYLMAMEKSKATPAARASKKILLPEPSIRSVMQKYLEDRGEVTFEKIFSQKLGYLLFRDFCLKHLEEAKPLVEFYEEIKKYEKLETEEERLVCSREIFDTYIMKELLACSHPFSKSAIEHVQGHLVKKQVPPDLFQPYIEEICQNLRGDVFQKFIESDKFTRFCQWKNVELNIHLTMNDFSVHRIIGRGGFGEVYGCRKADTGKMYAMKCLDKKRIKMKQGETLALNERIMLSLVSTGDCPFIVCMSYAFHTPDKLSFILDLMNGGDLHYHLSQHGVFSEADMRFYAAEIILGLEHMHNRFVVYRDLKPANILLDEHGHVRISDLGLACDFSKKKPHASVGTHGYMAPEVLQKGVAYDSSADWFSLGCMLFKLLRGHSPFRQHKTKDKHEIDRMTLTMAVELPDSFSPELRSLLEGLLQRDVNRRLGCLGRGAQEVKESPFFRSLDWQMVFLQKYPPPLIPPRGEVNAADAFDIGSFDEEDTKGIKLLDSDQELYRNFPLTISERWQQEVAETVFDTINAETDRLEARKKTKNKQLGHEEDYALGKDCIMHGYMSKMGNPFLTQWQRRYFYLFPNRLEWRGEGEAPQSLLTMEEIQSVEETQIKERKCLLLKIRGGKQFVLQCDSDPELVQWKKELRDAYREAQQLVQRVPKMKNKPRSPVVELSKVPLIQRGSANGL


Experiments:
β2AR [1] = assay: β2AR sequestration in HEK-293 cells by 125I-Cyanopindolol binding; format: cell-based; conditions: 1 μM isoproterenol, 0-30 min; wortmannin 100 nM 15 min before, or co-transfected ΔPI3Kγ
Experimental: Determination of β2AR Sequestration in HEK-293 Cells by ^125I-Cyanopindolol (CYP) Binding—β2AR sequestration was performed as previously described. Briefly, HEK-293 cells were plated at a density of 2.5×10^6 cells/dish and transfected the following day with plasmids containing either the β2AR (150-250 ng), β2AR (250 ng) and HEAT domain (4 μg), PI3Kγ (4.0 μg) or ΔPI3Kγ (4.0 μg) cDNAs. Twelve hours after transfection cells were split into six well Falcon plates at a density of 750,000 cells/well. […] To determine the amount of internalized receptor, 100 μl aliquots of whole cells were added to 150 μl of binding buffer (75 mM Tris-HCl, 10 mM MgCl2, 5 mM EDTA (pH 7.5)). Total binding was determined in the presence of 175 pM ^125I-CYP alone, the number of internalized receptors were determined by using 175 pM ^125I-CYP plus 100 nM CGP12177, and non-specific binding was determined using 175 pM ^125I-CYP plus 1 μM propranolol. Sequestration was calculated as the ratio of (specific receptor binding of ^125I-CYP in the presence of CGP12177)/(specific receptor binding of ^125I-CYP in the absence of CGP12177).

β-arrestin2-GFP = β-arrestin2-GFP recruitment to the membrane by confocal microscopy; format: cell-based; conditions: isoproterenol; co-expressed mutant protein
Experimental: Confocal Microscopy—Confocal microscopy was performed as previously described. […] Cells were split into 35 mm^2 dishes with glass bottoms for observation using a Zeiss LSM-510 confocal microscope. […] For analyses of the HEAT domain, HEK 293 cells were transfected with the plasmids containing cDNAs encoding either the β2AR-YFP (2 μg) or β2AR-YFP (2 μg) and HEAT domain (4 μg). Cells were plated onto glass bottom dishes for observation in the confocal microscope. […] Cells were permeablized with 0.1% Triton X-100 in phosphate-buffered saline for 20 min, incubated in 1% BSA in phosphate-buffered saline for 1 hr. Cells were washed with 1× phosphate-buffered saline and incubated with anti-HA or anti-FLAG monoclonal antibody (1:250) with 1% BSA in 1× phosphate-buffered saline for 1 hr. Cells were washed and incubated with goat anti-mouse IgG conjugated with Texas Red (1:500) (Molecular Probes) for 1 hr. Samples were visualized using single sequential line excitation filters at 488 and 568 nm and emission filter sets at 505-550 nm for GFP detection and 585 for Texas Red detection.
To exclude these possibilities cells were co-transfected with plasmids containing FLAG β2AR, β-arrestin2-GFP and either PI3Kγ or ΔPI3Kγ cDNAs, and were monitored for the recruitment of β-arrestin2-GFP using confocal microscopy. […] Marked redistribution of β-arrestin2-GFP to the membrane occurred within 2.5 minutes. […]

β2AR [2] = biological target: T2, β2AR (Homo sapiens, UniProt P07550); assay: Agonist-induced β2AR phosphorylation, 32P metabolic labeling; format: cell-based; conditions: 10 μM isoproterenol 5 min; ΔPI3Kγ co-transfected
T2 construct: expressed in transfected cells; host or cells: HEK-293
Experimental: β2AR Phosphorylation—β2AR phosphorylation was performed in intact cells as previously described. Cells were transfected with plasmids containing the FLAG β2AR (2 μg) and vector DNA (2.5 μg), the FLAG β2AR (2 μg) and PI3Kγ (2.5 μg), or the β2AR (2 μg) and ΔPI3Kγ (2.5 μg). 24 hr after transfection, cells were washed and metabolically labeled for 1 hr with medium containing 100 μCi of ^32P/ml. […] Following centrifugation at 38000×g for 20 min at 4° C., the supernatants were processed for immunoprecipitation of the FLAG-β2AR as described above. Phosphorylated receptors were resolved by 10% SDS-polyacrylamide gel electrophoresis and dried gels subjected to autoradiography.
To directly test the effect of API3Kγ expression on receptor phosphorylation, ^32P; metabolic labeling was performed in HEK-293 cells transfected with plasmids containing FLAG β2AR and either the PI3Kγ or ΔPI3Kγ cDNAs. […] Thus, the effect of overexpression of ΔPI3Kγ on β2AR sequestration is not related to processes that are involved with β2AR phosphorylation or β-arrestin2 recruitment. In FIG. 6D, Agonist (ISO, 5 min) promoted β2AR phosphorylation in transfected cells after ^32Pi metabolic labeling for 1 hour prior to stimulation (upper panel). Lower panel, immunoblot for HA showing equal levels of expression of HA-PI3Kγ and HA-ΔPIβKγ. + represents HA-PI3Kγ control.

βARK1 = biological target: T1, βARK1; assay: Co-immunoprecipitation and GST pull-down with purified βARK1; format: binding; conditions: sepharose beads, versus GST alone
Experimental: GST Fusion Protein Expression and Pull-down Experiments—Plasmid DNAs were transformed in Escherichia coli BL21 cells. Overnight cultures were grown in LB medium supplemented with ampicillin (100 μg/ml), diluted to an A600 of 0.2 in the same medium and grown for another 1 hr at 37° C. Cultured cells were then induced with 0.1 mM isopropyl-1-thio-β-D-galactopyranoside for 2 hr. Cell were then pelleted, washed once with 1× phosphate-buffered saline and resuspended in 1× phosphate-buffered saline containing 1 mM phenylmethylsulfonyl fluoride, 2 mg/ml lysozyme and incubated for 15 min on ice. Cells were lysed by adding Triton X-100 1%. Solublized cells were incubated with DNase (300 units) for 15 min on ice and centrifuged at 13,000 rpm for 10 min.
Glutathione-Sepharose beads were added to the supernatant and gently agitated at 4° C. for 2 hr. Beads were washed three times with ice cold 1×PBS containing 1% Triton X-100 followed by three washes with cold PBS without detergent. Protein concentration was determined using a DC protein assay kit (Bio Rad), and the integrity of the fusion protein was analyzed by SDS-polyacrylamide gel electrophoresis and Coomassie staining.
The beads were spun and washed three times with binding buffer followed by three washes with binding buffer without detergent. The beads were resuspended in SDS gel loading buffer and resolved by gel electrophoresis, immunblotting and detection was carried out described later.
FLAG-HEAT and PI3KΔHEAT proteins were immunoprecipitated from cell extracts using monoclonal FLAG and HA antibodies respectively, fractionated by SDS-PAGE and analyzed by immunoblotting with βARK1 monoclonal antibody. […] Levels of expression of HEAT and PI3KΔHEAT proteins were similar (FIG. 8B, lower panel).
To investigate whether there was a direct physical interaction between the HEAT domain of PI3K and βARK1, GST-HEAT fusion protein containing 535-732 amino acid residues of PI3Kγ was produced, which including the entire HEAT domain and flanking upstream 10 amino acids and downstream 7 amino acids. […]

[3] = system: Gβγ subunits of G-protein; assay: Pull-down with purified Gβγ; format: binding; conditions: GST-HEAT beads with purified Gβγ
Experimental: Subsequently, 10 μg of purified Gβγ was added to either βARK1 immobilized beads (5 pg), or the GST-HEAT fusion protein beads (5 μg), and gently rocked for 45 min at room temperature. Beads were spun down, washed in binding buffer X2 and resolved by gel electrophoresis. The presence of Gβγ was detected by immunoblotting with an antibody directed against the Gβ subunit. Purified Gβγ and βARK1 were gifts from Dr. Robert Lefkowitz.
Purified βARK1 and GST-HEAT fusion protein immobilized on sepharose beads were incubated with purified Gβγ. The beads were washed and recovered proteins were analyzed by SDS-PAGE followed by immunoblotting with a Gβ polyclonal antibody. […] Purified Gβγ was loaded as a positive control.

Molecule | rate of β2AR sequestration (β2AR [1]) | recruitment of β-arrestin2-GFP to the receptor/membrane after agonist (β-arrestin2-GFP) | level of agonist-induced receptor phosphorylation (β2AR [2]) | binding of purified βARK1 to immobilized fusion protein (βARK1) | association of Gβγ [3]
ΔPI3Kγ: HA tagged PI3 Kp110γ mutant, Δ942-981, deletion in ATP binding site; catalytically inactive (protein) MELENYKQPVVLREDNCRRRRRMKPRSAASLSSMELIPIEFVLPTSQRKCKSPETALLHVAGHGNVEQMKAQVWLRALETSVAADFYHRLGPHHFLLLYQKKGQWYEIYDKYQVVQTLDCLRYWKATHRSPGQIHLVQRHPPSEESQAFQRQLTALIGYDVTDVSNVHDDELEFTRRGLVTPRMAEVASRDPKLYAMHPWVTSKPLPEYLWKKIANNCIFIVIHRSTTSQTIKVSPDDTPGAILQSFFTKMAKKKSLMDIPESQSEQDFVLRVCGRDEYLVGETPIKNFQWVRHCLKNGEEIHVVLDTPPDPALDEVRKEEWPLVDDCTGVTGYHEQLTIHGKDHESVFTVSLWDCDRKFRVKIRGIDIPVLPRNTDLTVFVEANIQHGQQVLCQRRTSPKPFTEEVLWNVWLEFSIKIKDLPKGALLNLQIYCGKAPALSSKASAESPSSESKGKVRLLYYVNLLLIDHRFLLRRGEYVLHMWQISGKGEDQGSFNADKLTSATNPDKENSMSISILLDNYCHPIALPKHQPTPDPEGDRVRAEMPNQLRKQLEAIIATDPLNPLTAEDKELLWHFRYESLKHPKAYPKLFSSVKWGQQEIVAKTYQLLARREVWDQSALDVGLTMQLLDCNFSDENVRAIAVQKLESLEDDDVLHYLLQLVQAVKFEPYHDSALARFLLKRGLRNKRIGHFLFWFLRSEIAQSRHYQQRFAVILEAYLRGCGTAMLHDFTQQVQVIEMLQKVTLDIKSLSAEKYDVSSQVISQLKQKLENLQNSQLPESFRVPYDPGLKAGALAIEKCKVMASKKKPLWLEFKCADPTALSNETIGIIFKHGDDLRQDMLILQILRIMESIWETESLDLCLLPYGCISTGDKIGMIEIVKDATTIAKIQQSTVGNTGAFKDEVLNHWLKEKSPTEEKFQAAVERFVYSCAGYCVATFVLGIGDRVPFVLTPDFLFVMGTSGKKTSPHFQKFQDICVKAYLALRHHTNLLIIILFSMMLMTGMPQLTSKEDIEYIRDALTVGKNEEDAKKYFLDQIEVCRDKGWTVQFNWFLHLVLGIKQGEKHSAYPYDVPDYA | significant attenuation | prompt recruitment | not affected | – | –
GST-HEAT: GST fusion protein containing 535-732 amino acid residues of PI3Kγ, including the entire HEAT domain (protein, left off: a dimerising Fc or GST, GST fusion protein containing 535-732 amino acid residues of PI3Kγ, including the entire HEAT domain) HPIALPKHQPTPDDRVRAEMPNQLRKQLEAIIATDTAEDKELLWHFRYESLKHPKAYPKLFSSVKWGQQEIVAKTYQLLARREVWDQSALDVGLTMQLLDCNFSDENVRAIAVQKLESLEDDDVLHYLLQLVQAVKFEPYHDSALARFLLKRGLRNKRIGHFLFWFLRSEIAQSRHYQQRFAVILEAYLRGCGTA | – | – | – | bound specifically | no association
